Results taken from the supplement of paper PMC10724198.
± gives the standard deviation of the averaged measurements.

System: Saccharomyces cerevisiae
Assay: protein stability index of tFT-peptide fusion (C-terminal peptide) (PSI (0-1 scale)); higher = more stable (slower turnover)
Conditions: genetic background: wild type; temperature: 30 C
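Note: PSI is a weighted mean of sequencing reads over stability bins, variants kept only with over 10 reads, mCherry proximal and sfGFP distal, peptide attached via GGGS linker.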

Sequence	protein stability index
LPLLALPLALHP	0.653 ± 0.0077
LPLMVPIPLLLP	0.648 ± 0.024
LPLPIPPFPCPP	0.686 ± 0.017
LPLPSTYHHISK	0.68 ± 0.063
LPLWQHPTKPVH	0.64238 ± 8.1e-05
LPLYYPPGTREL	0.708 ± 0.027
LPPAIPSTPPTP	0.756 ± 0.0087
LPPASHLPYLVL	0.717 ± 0.019
LPPLAPPPPPLP	0.688 ± 0.026
LPPLCLPPPAHP	0.733 ± 0.026
LPPLPPPPPLPL	0.688 ± 0.11
LPPLSLSPPLPP	0.689 ± 0.049
LPPLTSPSIVRG	0.749 ± 0.04
LPPPFPSPPRPP	0.617 ± 0.14
LPPPLPPRPSPP	0.728 ± 0.089
LPPPPAPSSAPL	0.735 ± 0.14
LPPPPLPPPVFP	0.74 ± 0.018
LPPPPPHRTGDC	0.5859 ± 0.0028
LPPPPPLPSSPL	0.685 ± 0.018
LPPPPRPPPPPP	0.663 ± 0.021
LPPPPSASPPRP	0.794 ± 0.06
LPPPPTAPPPSR	0.719 ± 0.058
LPPPRPASPGSP	0.642 ± 0.051
LPPPRPGLPFTF	0.704 ± 0.057
LPPPRSPPPLSA	0.622 ± 0.057
LPPPSLPGPSAS	0.786 ± 0.059

Sequence	protein stability index
LPPPYPRPPPFR	0.68 ± 0.005
LPPRPLPPPSRT	0.7 ± 0.076
LPPRPPTHSPPP	0.722 ± 0.011
LPPRTHSPLSSP	0.636 ± 0.11
LPPSPLMTRTCA	0.6343 ± 0.0041
LPPSSLTLSPSS	0.675 ± 0.045
LPPSSSPCPLPS	0.7304 ± 0.0053
LPRLPPPPHPCP	0.741 ± 0.013
LPRLTPARPRHH	0.7 ± 0.1
LPRPPAPPMRYM	0.70928 ± 9.3e-05
LPRSPPCCHVND	0.628 ± 0.02
LPRVSMTPTRVG	0.6535 ± 0.0029
LPSHRSPITSFL	0.668 ± 0.14
LPSLHPPPSPQP	0.777 ± 0.08
LPSPHPPPPPLS	0.673 ± 0.13
LPSSFLPVPAPP	0.6976 ± 0.00082
LPTLPPPTPYAL	0.652 ± 0.044
LPTPVRRPPSPP	0.71 ± 0.028
LPTSPMSCHTLT	0.76 ± 0.088
LPVSISIGNVGR	0.627 ± 0.025
LPWLTASRLVMR	0.714 ± 0.043
LQATFRRHLNLV	0.655 ± 0.032
LQFGHGDFRSTV	0.713 ± 0.093
LQRAPKLLPSSS	0.683 ± 0.03
LQRHSSQQTTSA	0.658 ± 0.025
LQVTLALSAALP	0.802 ± 0.079

Sequence	protein stability index
LRAVRDSLMSQC	0.681 ± 0.033
LRCNAQSMICLT	0.633 ± 0.081
LRCPLMYDIFYN	0.726 ± 0.074
LRCRLFIWDGVK	0.809 ± 0.038
LRDYLLWRECTL	0.692 ± 0.033
LRFLLLRFILRS	0.472 ± 0.048
LRGCGSGAGWFL	0.667 ± 0.028
LRGILGTLINGV	0.609 ± 0.097
LRGLRALRGDLT	0.654 ± 0.05
LRGVAIAARYPR	0.766 ± 0.02
LRIQKIVSGALM	0.707 ± 0.01
LRLLCVSGSSVR	0.638 ± 0.065
LRLSCGDRFRVG	0.557 ± 0.019
LRLTTNTGCTIS	0.611 ± 0.023
LRPKESQEYIHR	0.652 ± 0.079
LRPLQPCGLIQC	0.52 ± 0.022
LRQKKIELPIEP	0.687 ± 0.02
LRRPAFCAFTST	0.715 ± 0.024
LRRSPPNPLLKA	0.634 ± 0.021
LRRSRGTVWRWY	0.5535 ± 0.0032
LRSIAVLPPSPF	0.695 ± 0.039
LRSPPSLLPLSL	0.7056 ± 0.0033
LRSQDFKGHLRT	0.6606 ± 0.0029
LRSRTPPSPHFP	0.626 ± 0.0069
LRTLVARWIVGQ	0.515 ± 0.021
LRVFKVCSGISG	0.642 ± 0.045

Sequence	protein stability index
LRVGMSSASVFQ	0.733 ± 0.03
LRVNGIVTVSGF	0.749 ± 0.13
LSAVHYNRAVFA	0.5141 ± 0.0049
LSAVRFGRVWGG	0.6959 ± 0.0043
LSCWLGCVALGW	0.718 ± 0.13
LSEVFLSMNVVL	0.676 ± 0.06
LSFLYCSDNKVA	0.6562 ± 0.006
LSGLQGPGVSCC	0.642 ± 0.021
LSHLILPPSSPS	0.677 ± 0.013
LSIFFCRCFSSF	0.59 ± 0.021
LSIGGDLLFLRE	0.716 ± 0.067
LSKASNTLVDSD	0.755 ± 0.058
LSLFMAAREVFP	0.664 ± 0.018
LSLGSSATLTFQ	0.698 ± 0.03
LSLLPPLCFPSH	0.8215 ± 0.0043
LSLTCLSSPPPA	0.654 ± 0.034
LSLVDFSTLWFF	0.611 ± 0.08
LSPAAPTHAYAA	0.72 ± 0.1
LSPALSFVLTIW	0.497 ± 0.011
LSPFGTLLNAPP	0.782 ± 0.075
LSPGQVLPWGVL	0.643 ± 0.069
LSPLPPPAGHLP	0.646 ± 0.096
LSPPPLSPPSHP	0.723 ± 0.0092
LSQFQEPPFYLF	0.708 ± 0.044
LSQISTQRPNQV	0.694 ± 0.06
LSRHSRSILPSL	0.726 ± 0.056

Sequence	protein stability index
LSRSTSYILIII	0.515 ± 0.039
LSRWGKTKGKKW	0.62 ± 0.014
LSSARPLAGVHT	0.675 ± 0.03
LSSCPPPALRLP	0.715 ± 0.013
LSSGSCLESPFT	0.732 ± 0.08
LSSLYSSLTFFL	0.651 ± 0.014
LSSNSTTSATYR	0.722 ± 0.016
LSSSVIFALPLP	0.767 ± 0.034
LSSTGFDLWSLL	0.769 ± 0.067
LSTAWFYFSLLF	0.635 ± 0.072
LTCRGESYAGLI	0.651 ± 0.014
LTFWLGSLGLWG	0.72 ± 0.019
LTHLPSLCVRRI	0.647 ± 0.06
LTHTVLVGSALN	0.647 ± 0.024
LTIEFSARLGNA	0.663 ± 0.03
LTLPLFPPPCSV	0.648 ± 0.018
LTPEPPRPPTPY	0.699 ± 0.033
LTPSVRDKRPPI	0.759 ± 0.055
LTPTLLTNPQAD	0.678 ± 0.022
LTRFQPTPCLPP	0.691 ± 0.0074
LTVVGGVVGKVG	0.689 ± 0.037
LVAAEARIGFAV	0.7 ± 0.012
LVCLLFTNKVMH	0.599 ± 0.011
LVEARQGAFLVV	0.692 ± 0.029
LVEEGKKLTSKF	0.711 ± 0.078
LVGALISHSILR	0.629 ± 0.019

Sequence	protein stability index
LVGRVGAVAGPA	0.691 ± 0.028
LVHGWERPSRVR	0.661 ± 0.021
LVIGTTLSSLML	0.742 ± 0.066
LVLDVLDLRRHC	0.649 ± 0.012
LVLLDQISVPLI	0.6474 ± 0.00096
LVLLFGIGTTHW	0.65 ± 0.049
LVLRLLRGFLPK	0.681 ± 0.014
LVNVIPSHERAT	0.656 ± 0.037
LVPSPLIFPSLG	0.783 ± 0.012
LVRCPLGVPGAS	0.7085 ± 0.0065
LVSGFRYPFSCL	0.611 ± 0.037
LVSLVGVGWGCG	0.729 ± 0.023
LVVGNQFIRRSD	0.685 ± 0.023
LVVPNFPLSFSV	0.732 ± 0.055
LVVSLGLFLLRH	0.549 ± 0.045
LVWFQYFRLWGG	0.61 ± 0.029
LWENVVLVEGGK	0.704 ± 0.069
LWGEGAGPEDVG	0.674 ± 0.011
LWGGAGAGYWVG	0.727 ± 0.033
LWGVGWPLLGGL	0.691 ± 0.04
LWISDSGSLYFS	0.739 ± 0.018
LWKLLNTVKNAA	0.62 ± 0.01
LWLDKSREGSLG	0.701 ± 0.021
LWLSAPDRREPF	0.684 ± 0.041
LWRRPASSLLPI	0.701 ± 0.018
LWSDPGQILVEL	0.717 ± 0.015

Sequence	protein stability index
LYPGYIVVANYK	0.661 ± 0.032
LYPNPPLLPCSP	0.612 ± 0.046
LYQEPLRNACFC	0.683 ± 0.1
LYRRGTYFEGLI	0.704 ± 0.012
LYSGLASEIWYT	0.737 ± 0.045
LYSPSLRPPLLL	0.855 ± 0.18
LYSRSSRLFRPL	0.804 ± 0.042
LYSTATLSLCSR	0.707 ± 0.12
LYTNLIGFNSWI	0.713 ± 0.037
LYVTYVPYTYAT	0.665 ± 0.012
MALAVRVVGCGA	0.594 ± 0.014
MDKIKKNYSQIG	0.693 ± 0.036
MEAAGVGRVVWR	0.632 ± 0.056
MEGNQTSVRGRT	0.677 ± 0.083
MESGKILGCCGI	0.684 ± 0.012
MGGDATSLKRLV	0.703 ± 0.0091
MGGRDNLVQKEW	0.804 ± 0.091
MGYNSRHLDISM	0.677 ± 0.018
MIKAPGHKGTIN	0.684 ± 0.02
MITRPASKYLVK	0.6221 ± 0.0052
MIVSILRSRSFS	0.557 ± 0.0066
MKNKSTEKNRKF	0.72815 ± 0.00016
MKPPRGRIVITG	0.626 ± 0.02
MLGRLLDRCYDY	0.678 ± 0.029
MLHLNPVLHISG	0.653 ± 0.041
MLLLWRVPQCGE	0.638 ± 0.055

Sequence	protein stability index
MLMFSASAVWGG	0.556 ± 0.048
MLPPRRAPFPPP	0.735 ± 0.018
MLYENNTAPLFI	0.635 ± 0.045
MPCPFSSASRAI	0.668 ± 0.036
MPENGSTKSWWK	0.696 ± 0.082
MPGSLPVSRVLL	0.74 ± 0.087
MQLWECKQSLCD	0.696 ± 0.017
MQQWSTKSPGVI	0.651 ± 0.027
MREAQAFRCLYG	0.636 ± 0.0019
MSFFPCVFSGFG	0.738 ± 0.033
MSGRGPYPYSPL	0.7465 ± 0.0034
MSKTIEREGNMI	0.735 ± 0.034
MSPSVFLPPLPL	0.662 ± 0.09
MSRRSVFGAVFW	0.663 ± 0.039
MSSTLCMLPFSV	0.771 ± 0.012
MTKNKFLTGSRL	0.845 ± 0.22
MTYSVWENVLTW	0.733 ± 0.032
MVDGFLRFDTKM	0.704 ± 0.13
MVELWQPASVFS	0.663 ± 0.033
MVGASFAILGFI	0.699 ± 0.014
